From EP2057188B1
“And” between values parts separate entries of the source, which are not always exact repeats. Identical values can stand only once. Like-named read-outs stand apart in the source and are kept apart here.

Legend:
[1] = target: T1, GIP Receptor (Rattus norvegicus (Rat)), P43219; assay: cell-based or functional assay
T1 chain: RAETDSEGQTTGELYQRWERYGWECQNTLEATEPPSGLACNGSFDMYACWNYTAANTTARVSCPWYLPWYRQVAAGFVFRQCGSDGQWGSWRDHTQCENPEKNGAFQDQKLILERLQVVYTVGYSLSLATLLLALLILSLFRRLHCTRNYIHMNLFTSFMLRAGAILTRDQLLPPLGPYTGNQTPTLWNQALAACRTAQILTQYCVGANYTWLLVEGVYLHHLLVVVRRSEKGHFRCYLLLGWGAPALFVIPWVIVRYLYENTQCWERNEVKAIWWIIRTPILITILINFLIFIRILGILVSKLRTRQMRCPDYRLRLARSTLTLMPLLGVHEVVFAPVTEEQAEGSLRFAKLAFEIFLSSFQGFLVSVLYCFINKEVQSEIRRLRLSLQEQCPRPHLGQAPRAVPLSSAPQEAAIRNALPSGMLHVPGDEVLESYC

[2] = target: T1, GIP Receptor (Rattus norvegicus (Rat)), …; assay: GIP RBA, RIN
[3] = target: T2, human GIP receptor (human), P48546; assay: 125I-GIP displacement, HEK-GIPR
T2 chain: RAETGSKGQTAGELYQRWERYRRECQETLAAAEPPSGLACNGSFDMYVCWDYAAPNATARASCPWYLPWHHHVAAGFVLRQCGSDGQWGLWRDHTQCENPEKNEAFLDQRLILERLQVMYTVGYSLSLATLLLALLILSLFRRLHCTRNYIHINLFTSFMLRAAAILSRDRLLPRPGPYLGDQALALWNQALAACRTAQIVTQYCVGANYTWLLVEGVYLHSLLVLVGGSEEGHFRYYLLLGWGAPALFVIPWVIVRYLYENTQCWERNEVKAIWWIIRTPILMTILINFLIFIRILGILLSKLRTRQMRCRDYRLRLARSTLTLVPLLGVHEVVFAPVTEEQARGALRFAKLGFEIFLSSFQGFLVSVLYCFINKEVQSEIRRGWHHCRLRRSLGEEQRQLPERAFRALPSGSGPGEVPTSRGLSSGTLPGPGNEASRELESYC

[4] = target: T2, human GIP receptor (human), P48546; assay: 125I-GIP displacement, HEK-GIPR
[5] = target: T2, human GIP receptor (human), P48546; assay: 125I-GIP displacement, 10 nM analog, HEK-GIPR
[6] = target: T1, GIP Receptor (Rattus norvegicus (Rat)), …; assay: cell-based or functional assay
[7] = target: T1, GIP Receptor (Rattus norvegicus (Rat)), …; assay: GIP RBA

**Q.** Which results are given for YSDGTFISDYSIAMDKIHQQDFVNWLLAQKPKKIRYS (modifications not checked) [0601GIP4386]?
**A.** GIPR Cyclase [1]: 56; IC50 [2]: 156 nM

**Q.** What does the source list for YAEGTFISDYSIAMDKIHQQDFVNWLLAQKPKKIRYS (modifications not checked) [0601GIP4233]?
**A.** IC50 [3]: 0.21 nM; IC50 [4]: 0.12 nM and 0.41 nM; %Inh 10nM [5]: 89%

**Q.** Which results are given for YAEGTFISDYSIAMDKIHQQDFVNWLLAQKPSSGAPPPS (modifications not checked) [0601GIP4178]?
**A.** Cyclase [6]: 36.2; IC50 [3]: 0.17 nM; Cyclase [1]: 96

**Q.** How did the IC50 [7] turn out when YAEGTFISDYSIAMDKIHQQDFVNWLLAQKPSSGAPPPS (modifications not checked) [0601GIP4252] was run?
**A.** 5.6 nM

**Q.** And the Cyclase [6]?
**A.** 154
